From patent US20150232562A1 (Ablynx, published 2015)
Positions count from the first letter of the chain named.

What was measured:
[1] = biological target: T1, recombinant human ErbB2/Fc chimera (human, UniProt P04626 23-652); assay: SPR (Biacore 3000), periplasmic extract over immobilised rhErbB2-Fc
T1 construct: bought from R&D Systems; also called rhErbB2-Fc; rhErb2-Fc; Fc part of the bought chimera not given; not described

[2] = biological target: T2, Epidermal Growth Factor Receptor 2 (HER2) (human, UniProt P04626 23-1255); assay: cell-based or functional assay
[3] = biological target: T3, extracellular domain of HER2 (HER2-ECD), Flag- and polyhistidine-tagged (human, UniProt P04626 23-652); assay: SPR, 100 nM HER2-ECD over immobilised Nanobody (about 90 RU)
T3 construct: extracellular domain; made in HEK293T cells, purified by IMAC and SEC; also called ErbB2 ECD; not shown: N-terminal Flag tag after the Ig-kappa leader; C-terminal polyhistidine tag

[4] = biological target: T1, recombinant human ErbB2/Fc chimera; assay: SPR (Biacore 3000), purified Nanobody over immobilised rhErbB2-Fc
[5] = biological target: T1, recombinant human ErbB2/Fc chimera; assay: SPR (Biacore T100), Nanobody over immobilised rhErbB2-Fc
[6] = biological target: T3, extracellular domain of HER2 …; assay: SPR, 1000 nM HER2-ECD over immobilised Nanobody (about 90 RU)
[7] = biological target: T2, Epidermal Growth Factor Receptor 2 …; assay: flow cytometry on SKBR3 cells, periplasmic extract
[8] = biological target: T1, recombinant human ErbB2/Fc chimera; assay: ELISA, coated ErbB2/Fc
[9] = biological target: T3, extracellular domain of HER2 …; assay: SPR, 100 nM HER2-ECD over immobilised Nanobody; row label prints 5F7, table title, text and FIG. 19 say 47D5
[10] = biological target: T3, extracellular domain of HER2 …; assay: SPR, 1000 nM HER2-ECD over immobilised Nanobody; row label prints 5F7, table title, text and FIG. 19 say 47D5
[11] = biological target: T3, extracellular domain of HER2 …; assay: SPR, HER2-ECD over immobilised Nanobodies

B1: 2A5 (VHH)
VHH: EVQLVESGGGLVQPGGSLRLSCATSGFTFDDYAMTWVRQAPGKGLEWVSSINWSGTHTDYTDSVKGRFTISRNNANNTLYLQMNSLKSEDTAVYYCAKNWGDAGTTWFEKSGSAGQGTQVTVSS
notes: C-term myc-His6 tag
With B1 the koff [1] was 0.00142 s⁻¹ and the “inhibition of SKBR3 cell proliferation ([3H]-thymidine), 50 nM Nanobody” value (“inhibition of SKBR3 cell proliferation” for short) [2] was ~18%.

B2: 2D3 (VHH)
VHH: B1 VHH with G10S, T24A, T35S, A40V, T61A, G101R
notes: C-term myc-His6 tag; also called NB-2D3; Nb-2D3
B2 was tested, and the koff [3] was 0.0021 s⁻¹, the koff [4] was ~0.001 s⁻¹ and the Kd [5] was 1.09 nM. It also gave a koff [5] of 0.00148 s⁻¹, a kon [5] of 1.36e+06 M⁻¹ s⁻¹ and a koff [6] of 0.00151 s⁻¹. For the same binder, the “inhibition of SKBR3 cell proliferation” value [2] was ~30%.

B3: 2C3 (VHH)
VHH: EVQLVESGGGLVQPGGSLRLSCVASGFSLDDYGMTWVRQAPGKGLEWVSSINWSGTHTDYADSVKGRFTISRDNAKNTLFLQMNSLRSEDTAVYYCNQGWKIVPTDRTGHGTQVTVSS
notes: C-term myc-His6 tag
B3 was tested, and the koff [1] was 0.00111 s⁻¹ and the “inhibition of SKBR3 cell proliferation” value [2] was ~30%.

B4: 2A4 (VHH)
VHH: EVQLVESGGGLVQPGGSLRLSCAASGFIFDDYAMSWVRQAPGKGLEWVSAINWSGSHRNYADSVKGRFTISRDNAKKTVYLQMNSLQSEDTAVYYCGTGWQSTTKNQGYWGQGTQVTVSS
notes: C-term myc-His6 tag
With B4 the koff [1] was 0.00205 s⁻¹ and the “inhibition of SKBR3 cell proliferation” value [2] was ~30%.

B5: 2C5 (VHH)
VHH: EVQLVESGGGLVQAGGSLNLSCVASGIPFSTRTMAWYRQTPGKSRDWVATIRSGTPVYADSVKGRFTVSRDNAKNTLYLRMNSLKSEDSATYTCRAVNADIWGQGTQVTVSS
notes: C-term myc-His6 tag
B5: binds [7]; binds [8].

B6: 2A1 (VHH)
VHH: EVQLVESGGGLVQAGGSLRLSCVASKITFRRYIMDWYRQAPGKQRELVASINSDGSTGYTDSVKGRFTISRDNTKNTLDLQMNSLKPEDTAVYYCHGRWLEIGAEYWGQGTQVTVSS
notes: C-term myc-His6 tag
B6: binds [7]; binds [8].

B7: 2G4 (VHH)
VHH: EVQLVESGGGLVQAGGSLRLSCAASGNIFSHNAMGWYRQAPGKQRELVTYITINGIANYVDSVKGRFTISRDNTKNTMYLQMVSLKPEDTAVYYCNVGGREYSGVYYYREYWGQGTQVTVSS
notes: C-term myc-His6 tag
B7: binds [7]; binds [8].

B8: DUMMY-35GS-2D3 (bispecific antibody)
chain: EVQLVESGGGLVQAGGSLRLSCAASGRTFRSYPMGWFRQAPGKEREFVASITGSGGSTYYADSVKGRFTISRDNAKNTVYLQMNSLRPEDTAVYSCAAYIRPDTYLSRDYRKYDYWGQGTQVTVSSGGGGSGGGGSGGGGSGGGGSGGGGSGGGGSGGGGSEVQLVESGGSLVQPGGSLRLSCAASGFTFDDYAMSWVRQVPGKGLEWVSSINWSGTHTDYADSVKGRFTISRNNANNTLYLQMNSLKSEDTAVYYCAKNWRDAGTTWFEKSGSAGQGTQVTVSS
notes: C-term myc-His6 tag; also called dummy-2D3; Dummy-2D3
B8 was tested, and the koff [4] was ~0.001 s⁻¹, the Kd [5] was 1.77 nM and the koff [5] was 0.00113 s⁻¹. It also gave a kon [5] of 1.16e+06 M⁻¹ s⁻¹.

B9: 47D5 (VHH)
VHH: KVQLVESGGGLVQPGGSLRLSCAASGSIFGFNDMAWYRQAPGKQRELVALISRVGVTSSADSVKGRFTISRVNAKDTVYLQMNSLKPEDTAVYYCYMDQRLDGSTLAYWGQGTQVTVSS
notes: C-term myc-His6 tag; also called 47A8; 47A11
For B9, the koff [9] was 0.00256 s⁻¹, the Kd [5] was 2.23 nM and the koff [5] was 0.000862 s⁻¹. It also gave a kon [5] of 386000 M⁻¹ s⁻¹ and a koff [10] of 0.00131 s⁻¹.

B10: 2D3-35GS-47D5 (bispecific antibody)
chain: EVQLVESGGSLVQPGGSLRLSCAASGFTFDDYAMSWVRQVPGKGLEWVSSINWSGTHTDYADSVKGRFTISRNNANNTLYLQMNSLKSEDTAVYYCAKNWRDAGTTWFEKSGSAGQGTQVTVSSGGGGSGGGGSGGGGSGGGGSGGGGSGGGGSGGGGSEVQLVESGGGLVQPGGSLRLSCAASGSIFGFNDMAWYRQAPGKQRELVALISRVGVTSSADSVKGRFTISRVNAKDTVYLQMNSLKPEDTAVYYCYMDQRLDGSTLAYWGQGTQVTVSS
notes: biparatopic Nanobody; C-term myc-His6 tag; also called 2D3-47D5
With B10 the koff [3] was 8.07e-05 s⁻¹, the “fold lower koff than on each of the 2D3 and 47D5 surfaces” value [11] was 25 fold and the koff [6] was 5.45e-05 s⁻¹.

B11: 27A3-35GS-2D3 (bispecific antibody)
chain: EVQLVESGGGLVQAGGSLSLSCVASGRFFSTRVMAWYRQTPGKQREFVASMRGSGSTNYADSVRGRFAISRDNAKNTVYLQMNTLKPEDTAVYYCRDINEDQWGQGTQVTVSSGGGGSGGGGSGGGGSGGGGSGGGGSGGGGSGGGGSEVQLVESGGSLVQPGGSLRLSCAASGFTFDDYAMSWVRQVPGKGLEWVSSINWSGTHTDYADSVKGRFTISRNNANNTLYLQMNSLKSEDTAVYYCAKNWRDAGTTWFEKSGSAGQGTQVTVSS
notes: biparatopic Nanobody; C-term myc-His6 tag
With B11 the koff [4] was ~0.0001 s⁻¹.

B12: 27E7-35GS-2D3 (bispecific antibody)
chain: EVQLVESGGGLVQAGGSLRLSCAASGITFRRYDMGWYRQFPGKERELVATILSEGDTNYVDPVKGRFTISRDNAKNTVYLQMNDLKPEDTAVYYCNGVWRAIGRTYWGQGTQVTVSSGGGGSGGGGSGGGGSGGGGSGGGGSGGGGSGGGGSEVQLVESGGSLVQPGGSLRLSCAASGFTFDDYAMSWVRQVPGKGLEWVSSINWSGTHTDYADSVKGRFTISRNNANNTLYLQMNSLKSEDTAVYYCAKNWRDAGTTWFEKSGSAGQGTQVTVSS
notes: as for B11
For B12, the koff [4] was ~0.0001 s⁻¹.
